Assay [1] concerns the target Atg8 (1-116) K26P (S. cerevisiae) (UniProt P38182). Briefly: ITC; MicroCal iTC200, 25 °C; peptide in the syringe (FAM134B, SEC62, RTN3 0.5 mM; Atg40^234–252 2.0 mM; Atg40^237–252 1.8 mM), Atg8-family protein in the cell at 10 times lower concentration (1.8 mM Atg8 for Atg40^237–252 D243A D247A); 20 mM HEPES pH 6.8, 150 mM NaCl; single-site model; errors are fitting errors. On the technique in general: In ITC the heat of successive injections is recorded.

Assay [2] has as its target LC3B WT (rat LC3B 1-120) (rat) (UniProt Q62625). Briefly: ITC; peptide in the syringe (0.5 mM) titrated into 200 µl of the Atg8 homologue in the cell at a 10 times lower concentration; MicroCal iTC200, 25 °C, stirring at 1000 rpm; single-site binding model; N fixed to 1.0 when the fitting was not convergent due to weak interaction; errors are fitting errors.
Assay [3] concerns the target GABARAP WT (human GABARAP 1-116) (human) (UniProt O95166). The description is as above.
The target of the next assay is LC3C WT (UniProt Q9BXW4). The description is as above.
The target in another assay is LC3A WT (UniProt Q9H492). Described as above.
The target of the next assay is GABARAPL1 WT (UniProt Q9H0R8). Described as above.
The target in a further assay is GABARAPL2 WT (UniProt P60520). The description is as above.

Four substances from publication PMC7335187, “Super-assembly of ER-phagy receptor Atg40 induces local ER remodeling at contacts with forming autophagosomal membranes” (Nature Communications, 2020) can be followed below.

GABARAP WT (human GABARAP 1-116) (human), sequence (O95166 1-116): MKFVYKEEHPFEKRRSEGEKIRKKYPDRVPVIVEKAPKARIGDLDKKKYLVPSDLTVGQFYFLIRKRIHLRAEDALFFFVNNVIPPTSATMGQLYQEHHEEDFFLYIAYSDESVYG
GABARAPL1 WT, sequence (Q9H0R8 whole entry): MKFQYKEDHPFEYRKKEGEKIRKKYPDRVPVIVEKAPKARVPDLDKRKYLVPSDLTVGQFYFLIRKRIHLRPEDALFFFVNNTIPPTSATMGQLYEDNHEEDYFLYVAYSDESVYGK
GABARAPL2 WT, sequence (P60520 whole entry): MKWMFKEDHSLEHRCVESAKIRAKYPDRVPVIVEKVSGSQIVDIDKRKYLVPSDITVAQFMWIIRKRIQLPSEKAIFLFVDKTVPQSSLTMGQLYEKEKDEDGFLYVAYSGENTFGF
LC3C WT, sequence (Q9BXW4 1-126): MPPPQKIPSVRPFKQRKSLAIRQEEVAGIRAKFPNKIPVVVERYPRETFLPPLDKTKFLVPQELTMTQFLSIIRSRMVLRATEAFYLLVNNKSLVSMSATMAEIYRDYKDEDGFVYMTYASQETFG
Atg8 (1-116) K26P (S. cerevisiae), sequence (P38182 1-116 K26P): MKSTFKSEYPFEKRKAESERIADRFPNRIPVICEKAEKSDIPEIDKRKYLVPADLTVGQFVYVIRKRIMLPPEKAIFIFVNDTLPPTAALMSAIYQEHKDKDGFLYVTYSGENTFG

In general, Kd refers to the equilibrium constant for the complex coming apart. Lower therefore signals a tighter complex. In the case of “Atg40^237–252 peptide (from UniProt Q99325 237-252)”, in assay [1], the Kd amounted to 0.57 µM.

The stoichiometry N is the number of molecules, sites or subunits per partner or assembly. In assay [2], FAM134B444-470 E456A E462A peptide yielded a Kd of 8.2 µM and a stoichiometry N of 1.28 site.

In assay [3], FAM134B444-470 L458A peptide had a Kd of 2.06 µM and a stoichiometry N of 0.99 site.

On to FAM134B444-470 WT peptide, for which the Kd in assay [2] was determined as 0.62 µM; with LC3C WT, 1.11 µM; in the assay with LC3A WT, 0.21 µM; with GABARAPL1 WT, 0.12 µM; with GABARAPL2 WT, 0.3 µM. Moreover, the stoichiometry N was 1.08 site in assay [2]; 0.74 site with LC3C WT; 0.7 site with LC3A WT; 0.97 site with GABARAPL1 WT; 0.89 site in the assay with GABARAPL2 WT.
